Measured values as given in patent US8394607B2, “Anti-CD22 antibodies and immunoconjugates and methods of use” (Genentech, Inc., priority 2006, dated 2013).
Substitutions are numbered along the chain they refer to. Names and notes keep the numbering of the source. Values joined by “and” are separate entries in the source; they are usually repeats but may differ in a detail not shown here. Equal entries are not always repeated.

What was measured:
[1] = test system: Granta-519 cells; assay: Granta-519 xenograft tumor volume reduction; assay type: in vivo, SCID mice; details: Table 14 study, FIG. 19, 100 μg/m^2 drug at Day 0
Method: The ability of the thiomab drug conjugates prepared according to Example 11 to reduce B-cell tumor volume in xenograft models was tested according to the procedure disclosed in Example 9, herein. To SCID mice having Granta-519 cell xenograft tumors, control and anti-CD22 humanized 10F4v3 thiomab drug conjugates were administered at Day 0 in the doses shown in Table 14, below. The control HC(A118C) thiomab was anti-HER2 4D5 antibody.
Additional thiomab drug conjugates were tested in Granta-519 xenografts in CB17 SCID mice using the same protocol, although different drug doses were tested. The control antibody or control thiomab was anti-HER24D5 antibody or HC(A118C) thiomab.

[2] = test system: DoHH2 cells; assay: DoHH2 xenograft tumor volume reduction; assay type: in vivo; details: Table 16 study; follicular lymphoma DOHH2 xenograft, CB17 SCID mice; 600 or 300 μg/m^2
Text: In a similar study, using the same xenograft study protocol as disclosed in the above examples, varying the TDCs and doses administered, the efficacy of TDCs in follicular lymphoma DOHH2 xenografts in CB17 SCID mice was studied.

[3] = biological target: T1, human CD22-beta-ECD-His tagged soluble antigen (Homo sapiens, UniProt P20273, A486R/Y639H); assay: BIACORE surface plasmon resonance binding to soluble CD22 ECD; details: BIACORE 3000, 25° C., antibody coupled to chip, soluble CD22 ECD injected; one-to-one Langmuir model
T1 sequence (P20273 22-681 A486R/Y639H): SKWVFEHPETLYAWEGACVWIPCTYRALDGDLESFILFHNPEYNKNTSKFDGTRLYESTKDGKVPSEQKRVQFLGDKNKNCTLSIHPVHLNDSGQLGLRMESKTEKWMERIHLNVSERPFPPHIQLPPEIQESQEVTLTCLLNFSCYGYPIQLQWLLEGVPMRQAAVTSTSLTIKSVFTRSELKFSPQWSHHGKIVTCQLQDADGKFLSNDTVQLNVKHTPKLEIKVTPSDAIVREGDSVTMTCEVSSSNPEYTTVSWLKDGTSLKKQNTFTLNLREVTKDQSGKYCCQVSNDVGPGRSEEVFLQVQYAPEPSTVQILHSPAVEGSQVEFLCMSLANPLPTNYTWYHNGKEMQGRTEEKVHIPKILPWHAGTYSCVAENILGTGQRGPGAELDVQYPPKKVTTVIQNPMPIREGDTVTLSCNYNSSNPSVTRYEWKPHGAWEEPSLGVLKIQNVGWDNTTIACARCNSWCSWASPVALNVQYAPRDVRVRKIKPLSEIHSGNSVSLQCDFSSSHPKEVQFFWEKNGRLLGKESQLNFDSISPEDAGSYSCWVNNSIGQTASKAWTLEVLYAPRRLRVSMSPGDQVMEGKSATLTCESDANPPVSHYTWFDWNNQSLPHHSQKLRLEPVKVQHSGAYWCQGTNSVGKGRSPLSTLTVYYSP
Method: The binding affinity of murine and humanized 10F4 antibody for soluble CD22 extracellular domain (ECD) was determined by surface plasmon resonance measurement using a BIACORE® 3000 system (Biacore, Inc., Piscataway, N.J.). Briefly, carboxymethylated dextran biosensor chips (CMS, Biacore Inc.) were activated with N-ethyl-N′-(3-dimethylaminopropyl)-carbodiimide hydrochloride (EDC) and N-hydroxysuccinimide (NHS) according to the supplier's instructions. These activated chips were coated with anti-CD22 IgG1 antibody 10F4 (murine or humanized) by dilution to 5 μg/ml with 10 mM sodium acetate, pH 4.8, before injection at a flow rate of 5 μl/minute to achieve approximately 500 response units (RU) of coupled antibody. Next, 1M ethanolamine was injected to block unreacted groups. […] Association rates (kon) and dissociation rates (koff) were calculated using a simple one-to-one Langmuir binding model (BIAevaluation Software version 3.2). The equilibrium dissociation constant (Kd) was calculated as the ratio koff/kon. Anti-CD22 antibody, RFB4, was used as a control (Chemicon International, Inc., Temecula, Calif., catalog no. CBL147).

[4] = test system: BJAB-luc cells; assay: BJAB-luc xenograft tumor volume reduction; assay type: in vivo, SCID mice; details: single I.V. treatment, 32 days
Method: Sixty-five SCID mice were injected with 2×10^7 BJAB-luc cells subcutaneously in a volume of 0.2 ml per mouse in the flank. Cells were suspended in HBSS. When the mean tumor size reached 100-200 mm^3, mice were randomly grouped into four groups of 9 mice each and given a single I.V. treatment (via the tail vein) of the anti-CD22 or control antibody indicated in Table 4, below.
Mean tumor volume was monitored in each treatment group for 32 days post-antibody injection. Tumor measurements were taken with calipers. Efficacy of the toxin-conjugated anti-CD22 antibodies was determined by comparison to the control and unconjugated antibodies. […]

[5] = test system: cynomolgus monkey (cyno) CD22 expressed on the surface of CHO cells; assay: Cell-based competitive binding assay with 125I antibody, Scatchard analysis; details: 4 hours at 4° C.
Chain of cynomolgus monkey (cyno) CD22 expressed on the surface of CHO cells (as listed by the source): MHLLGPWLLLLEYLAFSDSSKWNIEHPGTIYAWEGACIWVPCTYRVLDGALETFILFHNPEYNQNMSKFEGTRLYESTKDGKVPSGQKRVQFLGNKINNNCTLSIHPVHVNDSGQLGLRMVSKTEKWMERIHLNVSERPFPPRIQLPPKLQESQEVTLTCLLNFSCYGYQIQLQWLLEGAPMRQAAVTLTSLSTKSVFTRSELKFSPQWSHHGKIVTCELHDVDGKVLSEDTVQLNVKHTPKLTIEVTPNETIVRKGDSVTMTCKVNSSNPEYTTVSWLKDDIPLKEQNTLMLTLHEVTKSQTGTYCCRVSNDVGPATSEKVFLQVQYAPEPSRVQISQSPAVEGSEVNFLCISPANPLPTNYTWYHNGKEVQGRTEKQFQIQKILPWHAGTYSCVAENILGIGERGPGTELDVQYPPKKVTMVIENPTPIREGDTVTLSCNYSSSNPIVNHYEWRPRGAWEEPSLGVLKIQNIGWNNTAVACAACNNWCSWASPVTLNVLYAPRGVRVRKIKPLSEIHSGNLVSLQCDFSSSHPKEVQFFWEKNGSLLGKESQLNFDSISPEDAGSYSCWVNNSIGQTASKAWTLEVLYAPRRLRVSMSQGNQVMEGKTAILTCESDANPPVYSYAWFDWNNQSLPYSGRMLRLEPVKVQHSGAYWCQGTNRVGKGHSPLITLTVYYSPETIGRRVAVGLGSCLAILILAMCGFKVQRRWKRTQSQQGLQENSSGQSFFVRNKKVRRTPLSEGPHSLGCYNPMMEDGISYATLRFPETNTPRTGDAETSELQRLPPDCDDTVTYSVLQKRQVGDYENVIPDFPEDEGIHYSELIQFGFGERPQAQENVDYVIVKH
Method: Briefly, CHO cells stably expressing full length human CD22 (SEQ ID NO:27) or cynomolgus monkey (cyno) CD22 (SEQ ID NO:31). […] A cell-based, competitive binding assay was performed using serially diluted, unlabeled anti-CD22 antibody. Antibodies were allowed to bind to the cells for 4 hours at 4° C. Binding affinity, KD, of the antibodies was determined in accordance with standard Scatchard analysis performed utilizing a non-linear curve fitting program (see, for example, Munson et al., Anal Biochem, 107: 220-239, 1980).

[6] = Table 4 study, 200 μg/m^2 DM1 (naked antibody 3.4 mg/kg)
[7] = Table 5 study, 200 μg/m^2 DM1 (naked antibody 4.5 mg/kg)

## Thio 10F4v3-LC(V205C)-MCvcPAB-MMAE: conjugation of V205C thio hu LC-10F4v3 and MC-val-cit-PAB-MMAE
[1]
  mean tumor volume: reduction in mean tumor volume for the duration of the study
[1]; listed as 10F4-LC-V210C-MCvcPAB-MMAE
  mean tumor volume: decrease in tumor volume during the study

## Thio 10F4v3-HC(A118C)-BMPEO-DM1: conjugation of A118C thio hu HC-10F4v3 and bmpeo-DM1
[2]
  efficacy on mean tumor volume: intermediate efficacy

B1: Chimeric 10F4: chimeric 10F4 anti-CD22 antibody (antibody, V domains shown)
VH: QVQLQQSGPELVKPGASVKISCKASGYEFSRSWMNWVKQRPGQGREWIGRIYPGDGDTNYSGKFKGKATLTADKSSSTAYMQLSSLTSVDSAVYFCARDGSSWDWYFDVWGAGTTVTVSS
VL: DILMTQTPLSLPVSLGDQASISCRSSQSIVHSNGNTFLEWYLQKPGQSPKLLIYKVSNRFSGVPDRFSGSGSGTDFTLKISRVEAEDLGVYYCFQGSQFPYTFGGGTKVEIK
[3]
  koff/10^−4: 4.2
  kon/10^5: 0.26

B2: Humanized 10F4v1: humanized 10F4 version 1, VH SEQ ID NO:16, VL SEQ ID NO:17, IgG1 (antibody, V domains shown)
VH: EVQLVESGGGLVQPGGSLRLSCAASGYEFSRSWMNWVRQAPGKGLEWVGRIYPGDGDTNYSGKFKGKATLTADKSSSTAYLQMNSLRAEDTAVYYCARDGSSWDWYFDYWGQGTLVTVSS
VL: DIQMTQSPSSLSASVGDRVTITCRSSQSIVHSNGNTFLEWYQQKPGKAPKLLIYKVSNRFSGVPSRFSGSRSGTDFTLTISSLQPEDFATYYCFQGSQFPYTFGQGTKVEIKR
modifications: IgG1 constant regions; sequence is synthesized
[4]; [6]
  CR (number of animals attaining complete remission): 0
  PR (number of animals with tumor regressed 50-99% from its initial volume): 0
  TI (tumor incidence at the last time point; tumor-bearing animals / total animals): 9/9
[5]; listed as Hu 10F4v1
  Kd: 1.4 nM and 1.8 nM

B3: Humanized 10F4v2: humanized 10F4 version 2, N28V in HVR-L1, VH SEQ ID NO:16, VL SEQ ID NO:18, IgG1 (antibody, V domains shown)
VH: B2 VH
VL: B2 VL with N33V
modifications: IgG1 constant regions; sequence is synthesized
[4]; [7]
  CR (number of animals attaining complete remission): 0
  PR (number of animals with tumor regressed 50-99% from its initial volume): 0
  TI (tumor incidence at the last time point; tumor-bearing animals / total animals): 9/9
[5]
  Kd: 2.1 nM
